Test results taken from US20250304687A1 (LTZ THERAPEUTICS, published 2025).

T1: human CD79b recombinant protein (human, UniProt P40259 29-159, limits assumed)
T1 construct: Coated on ELISA plates at 1 ug/ml
T1 sequence (looked up): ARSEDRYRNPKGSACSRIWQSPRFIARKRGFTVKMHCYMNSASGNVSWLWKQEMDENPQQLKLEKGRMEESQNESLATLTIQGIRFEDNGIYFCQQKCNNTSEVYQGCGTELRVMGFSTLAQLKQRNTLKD

B1: 23D8/TRX4 (bispecific antibody, human IgG1, kappa, N297G)
light: AYDMTQTPASVEVAVGGTVTIKCQASQSISDNLSWYQQKPGQPPKLLIYDASDLASGVPSRFSGSGSGTEFTLTISDLEPADAATYYCQQDWISSNVDNTFGGGTEVVVKRTVAAPSVFIFPPSDEQLKSGTASVVCLLNNFYPREAKVQWKVDNALQSGNSQESVTEQDSKDSTYSLSSTLTLSKADYEKHKVYACEVTHQGLSSPVTKSFNRGEC
heavy: QSLEESGGGLVTPGGTLTLTCTVSGLSLSSNAINWVRQAPGKGLEWIGMIYSGGRIEYASWAKGRFTISKTSTTVDLKITSPTTEDTATYFCAKGMSPSAHSSDIWGPGTLVTVSASTKGPSVFPLAPSSKSTSGGTAALGCLVKDYFPEPVTVSWSSGALTSGVHTFPAVLQSSGLYSLSSVVTVPSSSLGTQTYICNVNHKPSNTKVDKKVEPKSCDKTHTCPPCPAPELLGGPSVFLFPPKPKDTLMISRTPEVTCVVVDVSHEDPEVKFNWYVDGVEVHNAKTKPREEQYGSTYRVVSVLTVLHQDWLNGKEYKCKVSNKALPAPIEKTISKAKGQPREPQVYTLPPSRDELTKNQVSLSCAVKGFYPSDIAVEWESNGQPENNYKTTPPVLDSDGSFFLVSKLTVDKSRWQQGNVFSCSVMHEALHNRFTQKSLSLSPGK
chain: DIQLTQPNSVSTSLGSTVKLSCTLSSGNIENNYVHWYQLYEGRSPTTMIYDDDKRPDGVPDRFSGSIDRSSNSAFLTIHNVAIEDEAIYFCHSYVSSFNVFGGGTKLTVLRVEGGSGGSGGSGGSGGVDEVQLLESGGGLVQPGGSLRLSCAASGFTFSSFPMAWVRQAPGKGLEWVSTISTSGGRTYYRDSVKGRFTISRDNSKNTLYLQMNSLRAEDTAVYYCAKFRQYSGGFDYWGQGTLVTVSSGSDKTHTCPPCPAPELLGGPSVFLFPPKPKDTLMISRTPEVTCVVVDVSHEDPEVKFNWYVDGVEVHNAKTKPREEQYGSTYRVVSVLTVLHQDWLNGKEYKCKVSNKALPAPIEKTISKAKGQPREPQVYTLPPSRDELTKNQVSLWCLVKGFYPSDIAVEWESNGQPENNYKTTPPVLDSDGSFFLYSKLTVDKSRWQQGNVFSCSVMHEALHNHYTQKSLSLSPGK
notes: Knob-into-hole format: anti-CD79b Fab arm (rabbit 23D8 variable regions on human IgG1/kappa) and anti-CD3 TRX4 (otelixizumab) scFv-Fc
B2: 23D8/38E4 (bispecific antibody, human IgG1, kappa, N297G)
light: B1 light
heavy: B1 heavy
chain: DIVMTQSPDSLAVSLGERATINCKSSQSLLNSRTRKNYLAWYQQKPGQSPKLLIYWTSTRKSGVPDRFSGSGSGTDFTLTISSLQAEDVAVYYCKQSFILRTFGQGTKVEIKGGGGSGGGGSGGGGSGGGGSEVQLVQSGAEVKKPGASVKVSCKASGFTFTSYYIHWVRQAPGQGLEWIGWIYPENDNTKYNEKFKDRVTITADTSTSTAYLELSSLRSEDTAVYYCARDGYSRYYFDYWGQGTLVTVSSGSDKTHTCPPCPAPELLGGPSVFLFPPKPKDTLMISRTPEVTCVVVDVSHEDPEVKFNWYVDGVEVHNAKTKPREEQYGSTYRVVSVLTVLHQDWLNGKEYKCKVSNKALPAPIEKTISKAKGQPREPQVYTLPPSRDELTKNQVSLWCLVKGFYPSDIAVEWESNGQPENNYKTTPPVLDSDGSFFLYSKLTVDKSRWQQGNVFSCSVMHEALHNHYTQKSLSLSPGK
notes: Knob-into-hole format: anti-CD79b 23D8 Fab arm and anti-CD3 38E4 scFv-Fc; also called CD79b/CD3 bispecific antibody 23D8/38E4
B3: 23D8/msnCD3 (bispecific antibody, human IgG1, kappa, N297G)
light: B1 light
heavy: B1 heavy
chain: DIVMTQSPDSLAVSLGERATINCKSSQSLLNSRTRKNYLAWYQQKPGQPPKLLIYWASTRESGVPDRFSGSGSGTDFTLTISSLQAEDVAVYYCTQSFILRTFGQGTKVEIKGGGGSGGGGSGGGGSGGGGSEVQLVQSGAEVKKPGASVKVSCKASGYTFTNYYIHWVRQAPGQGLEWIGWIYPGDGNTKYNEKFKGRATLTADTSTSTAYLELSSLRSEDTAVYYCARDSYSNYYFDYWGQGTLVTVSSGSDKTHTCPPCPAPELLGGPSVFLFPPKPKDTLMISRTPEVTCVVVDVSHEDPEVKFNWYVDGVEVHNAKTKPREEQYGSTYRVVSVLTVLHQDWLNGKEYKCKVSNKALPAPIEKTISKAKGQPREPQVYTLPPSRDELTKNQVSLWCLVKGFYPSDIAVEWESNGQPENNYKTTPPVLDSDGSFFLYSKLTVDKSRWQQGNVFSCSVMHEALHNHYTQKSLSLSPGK
notes: also called CD79b/CD3 bispecific antibody 23D8/msnCD3
B4: Pola/msnCD3 (bispecific antibody, human IgG1, kappa, N297G)
light: DIQLTQSPSSLSASVGDRVTITCKASQSVDYEGDSFLNWYQQKPGKAPKLLIYAASNLESGVPSRFSGSGSGTDFTLTISSLQPEDFATYYCQQSNEDPLTFGQGTKVEIKRTVAAPSVFIFPPSDEQLKSGTASVVCLLNNFYPREAKVQWKVDNALQSGNSQESVTEQDSKDSTYSLSSTLTLSKADYEKHKVYACEVTHQGLSSPVTKSFNRGEC
heavy: EVQLVESGGGLVQPGGSLRLSCAASGYTFSSYWIEWVRQAPGKGLEWIGEILPGGGDTNYNEIFKGRATFSADTSKNTAYLQMNSLRAEDTAVYYCTRRVPIRLDYWGQGTLVTVSSASTKGPSVFPLAPSSKSTSGGTAALGCLVKDYFPEPVTVSWSSGALTSGVHTFPAVLQSSGLYSLSSVVTVPSSSLGTQTYICNVNHKPSNTKVDKKVEPKSCDKTHTCPPCPAPELLGGPSVFLFPPKPKDTLMISRTPEVTCVVVDVSHEDPEVKFNWYVDGVEVHNAKTKPREEQYGSTYRVVSVLTVLHQDWLNGKEYKCKVSNKALPAPIEKTISKAKGQPREPQVYTLPPSRDELTKNQVSLSCAVKGFYPSDIAVEWESNGQPENNYKTTPPVLDSDGSFFLVSKLTVDKSRWQQGNVFSCSVMHEALHNRFTQKSLSLSPGK
chain: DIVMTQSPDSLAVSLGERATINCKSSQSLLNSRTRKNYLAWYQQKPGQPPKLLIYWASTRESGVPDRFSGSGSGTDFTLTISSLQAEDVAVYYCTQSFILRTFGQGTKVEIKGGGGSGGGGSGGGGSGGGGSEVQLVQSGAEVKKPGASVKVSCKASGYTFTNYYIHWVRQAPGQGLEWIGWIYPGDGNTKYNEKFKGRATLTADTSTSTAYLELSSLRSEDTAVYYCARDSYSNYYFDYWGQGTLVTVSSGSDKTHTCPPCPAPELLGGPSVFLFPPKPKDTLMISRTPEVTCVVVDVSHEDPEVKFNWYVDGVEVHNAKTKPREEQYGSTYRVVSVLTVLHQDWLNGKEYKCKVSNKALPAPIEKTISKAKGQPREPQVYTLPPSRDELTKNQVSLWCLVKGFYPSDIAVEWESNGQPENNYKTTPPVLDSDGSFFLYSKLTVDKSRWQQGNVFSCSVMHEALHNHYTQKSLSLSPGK
notes: also called CD79b/CD3 bispecific antibody Pola/msnCD3

Target: T1, human CD79b recombinant protein
Assay: ELISA, coated human CD79b recombinant protein
Procedure: The binding affinities of CD79b/CD3 bispecific antibodies to human CD79b recombinant protein were tested by ELISA. 1 μg/ml (in PBS buffer) of human CD79b recombinant protein was coated on ELISA plates overnight. ELISA plates were washed and blocked with blocking buffer (PBS+1% BSA) and then incubated with serial dilutions of primary CD79b/CD3 bispecific antibodies.

| binding result | Binder |
| --- | --- |
| binds | B1 |
| binds | B2 |
| binds | B3 |
| binds | B4 |
